Patent publication US20230212319A1, “NOVEL ANTIGEN BINDING DOMAINS AND SYNTHETIC ANTIGEN RECEPTORS INCORPORATING THE SAME” (University of Southern California, priority 2020, published 2023)

B1: 22033 (protein)
chain: MALPVTALLLPLALLLHAARPQLQLQESGPGLVKPSETLSLTCTVSGDSISSGDYYWGWIRQPPGKGLEWIGHIYYSGVTYYNPSLKSRVTISVDTSRNQFSLKLSSVTAADTAVYYCTREDSSNWRSRGQGTLVTVSSLEDKTHTCPPCPAEVKTDSTDHVKPKETENTKQPSKSCHKPKAIVHTEKVNMMSLTVLGLRMLFAKTVAVNFLLTAKLFFLRAKRSGSGVKQTLNFDLLKLAGDVESNPGPTSMDWIWRILFLVGAATGAHSFEVQLVESGGGVVQPGRSLRLSCAASGFSFSGYGMHWVRQAPGKGLEWVAYISYDGSNKYYADSVKGRFTISRDNSKNTLYLQMNSLRAEDTAVYYCAKDPAWGLRLGESSSYDFDIWGQGTMVTVSSTRIQNPDPAVYQLRDSKSSDKSVCLFTDFDSQTNVSQSKDSDVYITDKCVLDMRSMDFKSNSAVAWSNKSDFACANAFNNSIIPEDTFFPSPESSCDVKLVEKSFETDTNLNFQNLSVIGFRILLLKVAGFNLLMTLRLWSSRAKRSGSGVKQTLNFDLLKLAGDVESNPGPSRGHMTEYKPTVRLATRDDVPRAVRTLAAAFADYPATRHTVDPDRHIERVTELQELFLTRVGLDIGKVWVADDGAAVAVWTTPESVEAGAVFAEIGPRMAELSGSRLAAQQQMEGLLAPHRPKEPAWFLATVGVSPDHQGKGLGSAVVLPGVEAAERAGVPAFLETSAPRNLPFYERLGFTVTADVEVPEGPRTWCMTRKPGA
B2: 22008 (protein)
chain: MALPVTALLLPLALLLHAARPQLQLQESGPGLVKPSETLSLTCTVSGDSISSGDYYWGWIRQPPGKGLEWIGHIYYSGVTYYNPSLKSRVTISVDTSRNQFSLKLSSVTAADTAVYYCTREDSSNWRSRGQGTLVTVSSLEDLKNVFPPEVAVFEPSEAEISHTQKATLVCLATGFYPDHVELSWWVNGKEVHSGVCTDPQPLKEQPALNDSRYCLSSRLRVSATFWQNPRNHFRCQVQFYGLSENDEWTQDRAKPVTQIVSAEAWGRADCGFTSESYQQGVLSATILYEILLGKATLYAVLVSALVLMAMVKRKDSRGRAKRSGSGATNFSLLKQAGDVEENPGPTSMDWIWRILFLVGAATGAHSFEVQLLESGGGLVQPGGSLRLSCAASGFIFSSYAMSWVRQAPGKGQEWVSGVSGTGVNTYYADSVKGRFTISRDNSKNTLYLQMNSLRAEDTAVYYCASGKGWDSGSWYEDYRGQGTLVTVSSTRIQNPDPAVYQLRDSKSSDKSVCLFTDFDSQTNVSQSKDSDVYITDKCVLDMRSMDFKSNSAVAWSNKSDFACANAFNNSIIPEDTFFPSPESSCDVKLVEKSFETDTNLNFQNLSVIGFRILLLKVAGFNLLMTLRLWSSRAKRSGSGVKQTLNFDLLKLAGDVESNPGPSRGHMTEYKPTVRLATRDDVPRAVRTLAAAFADYPATRHTVDPDRHIERVTELQELFLTRVGLDIGKVWVADDGAAVAVWTTPESVEAGAVFAEIGPRMAELSGSRLAAQQQMEGLLAPHRPKEPAWFLATVGVSPDHQGKGLGSAVVLPGVEAAERAGVPAFLETSAPRNLPFYERLGFTVTADVEVPEGPRTWCMTRKPGA
B3: 22011 (protein)
chain: MALPVTALLLPLALLLHAARPQLQLQESGPGLVKPSETLSLTCTVSGDSISSGDYYWGWIRQPPGKGLEWIGHIYYSGVTYYNPSLKSRVTISVDTSRNQFSLKLSSVTAADTAVYYCTREDSSNWRSRGQGTLVTVSSLEDLKNVFPPEVAVFEPSEAEISHTQKATLVCLATGFYPDHVELSWWVNGKEVHSGVCTDPQPLKEQPALNDSRYCLSSRLRVSATFWQNPRNHFRCQVQFYGLSENDEWTQDRAKPVTQIVSAEAWGRADCGFTSESYQQGVLSATILYEILLGKATLYAVLVSALVLMAMVKRKDSRGRAKRSGSGATNFSLLKQAGDVEENPGPTSMDWIWRILFLVGAATGAHSFEQLQLQESGPGLVKPSETLSLTCTVSGGSISSGDYYWGWIRQPPGKGLEWIGHIYYSGATYYNPSLKSRVTISVDTSRNQFSLKLSSVTAADTAVYYCTRDDSSNWRSRGQGTLVTVSSTRIQNPDPAVYQLRDSKSSDKSVCLFTDFDSQTNVSQSKDSDVYITDKCVLDMRSMDFKSNSAVAWSNKSDFACANAFNNSIIPEDTFFPSPESSCDVKLVEKSFETDTNLNFQNLSVIGFRILLLKVAGFNLLMTLRLWSSRAKRSGSGVKQTLNFDLLKLAGDVESNPGPSRGHMTEYKPTVRLATRDDVPRAVRTLAAAFADYPATRHTVDPDRHIERVTELQELFLTRVGLDIGKVWVADDGAAVAVWTTPESVEAGAVFAEIGPRMAELSGSRLAAQQQMEGLLAPHRPKEPAWFLATVGVSPDHQGKGLGSAVVLPGVEAAERAGVPAFLETSAPRNLPFYERLGFTVTADVEVPEGPRTWCMTRKPGA
B4: 22006 (protein)
chain: MALPVTALLLPLALLLHAARPLEGKPIPNPLLGLDSTGSGEDLKNVFPPEVAVFEPSKAEIAHTQKATLVCLATGFYPDHVELSWWVNGKEVHSGVCTDPQPLKEQPALNDSRYCLSSRLRVSATFWQNPRNHFRCQVQFYGLSENDEWTQDRAKPVTQIVSAEAWGRADCGITSASYHQGVLSATILYEILLGKATLYAVLVSALVLMAMVKRKDSRGRAKRSGSGATNFSLLKQAGDVEENPGPTSTMALPVTALLLPLALLLHAARPEVQLVESGGGLVQPGGSLRLSCTFSGGTFSSYTMGWFRQAPGKEREFVAEVRWGGVTTYSNSLKDRFSISEDSVKNAVYLQMNSLKPEDTAVYYCAAVRQMYMTVVPDYWGQGTLVTVSSTREQKLISEEDGSGIQNPDPAVYQLRDSKSSDKSVCLFTDFDSQTNVSQSKDSDVYITDKCVLDMRSMDFKSNSAVAWSNKSDFACANAFNNSIIPEDTFFPSSDVPCDVKLVEKSFETDTNLNFQNLSVIGFRILLLKVAGFNLLMTLRLWSSRAKRSGSGVKQTLNFDLLKLAGDVESNPGPSRGHMTEYKPTVRLATRDDVPRAVRTLAAAFADYPATRHTVDPDRHIERVTELQELFLTRVGLDIGKVWVADDGAAVAVWTTPESVEAGAVFAEIGPRMAELSGSRLAAQQQMEGLLAPHRPKEPAWFLATVGVSPDHQGKGLGSAVVLPGVEAAERAGVPAFLETSAPRNLPFYERLGFTVTADVEVPEGPRTWCMTRKPGA
B5: 22031 (protein)
chain: MALPVTALLLPLALLLHAARPQLQLQESGPGLVKPSETLSLTCTVSGDSISSGDYYWGWIRQPPGKGLEWIGHIYYSGVTYYNPSLKSRVTISVDTSRNQFSLKLSSVTAADTAVYYCTREDSSNWRSRGQGTLVTVSSLEGSPIKTDVITMDPKDNCSKDANDTLLLQLTNTSAYYMYLLLLLKSVVYFAIITCCLLRRTAFCCNGEKSRAKRSGSGATNFSLLKQAGDVEENPGPTSMDWIWRILFLVGAATGAHSFEVQLVESGGGVVQPGRSLRLSCAASGFSFSGYGMHWVRQAPGKGLEWVAYISYDGSNKYYADSVKGRFTISRDNSKNTLYLQMNSLRAEDTAVYYCAKDPAWGLRLGESSSYDFDIWGQGTMVTVSSTRIQNPDPAVYQLRDSKSSDKSVCLFTDFDSQTNVSQSKDSDVYITDKCVLDMRSMDFKSNSAVAWSNKSDFACANAFNNSIIPEDTFFPSPESSCDVKLVEKSFETDTNLNFQNLSVIGFRILLLKVAGFNLLMTLRLWSSRAKRSGSGVKQTLNFDLLKLAGDVESNPGPSRGHMTEYKPTVRLATRDDVPRAVRTLAAAFADYPATRHTVDPDRHIERVTELQELFLTRVGLDIGKVWVADDGAAVAVWTTPESVEAGAVFAEIGPRMAELSGSRLAAQQQMEGLLAPHRPKEPAWFLATVGVSPDHQGKGLGSAVVLPGVEAAERAGVPAFLETSAPRNLPFYERLGFTVTADVEVPEGPRTWCMTRKPGA
B6: 22032 (protein)
chain: MALPVTALLLPLALLLHAARPQLQLQESGPGLVKPSETLSLTCTVSGDSISSGDYYWGWIRQPPGKGLEWIGHIYYSGVTYYNPSLKSRVTISVDTSRNQFSLKLSSVTAADTAVYYCTREDSSNWRSRGQGTLVTVSSLEGSEVKTDSTDHVKPKETENTKQPSKSCHKPKAIVHTEKVNMMSLTVLGLRMLFAKTVAVNFLLTAKLFFLRAKRSGSGVKQTLNFDLLKLAGDVESNPGPTSMDWIWRILFLVGAATGAHSFEVQLVESGGGVVQPGRSLRLSCAASGFSFSGYGMHWVRQAPGKGLEWVAYISYDGSNKYYADSVKGRFTISRDNSKNTLYLQMNSLRAEDTAVYYCAKDPAWGLRLGESSSYDFDIWGQGTMVTVSSTRIQNPDPAVYQLRDSKSSDKSVCLFTDFDSQTNVSQSKDSDVYITDKCVLDMRSMDFKSNSAVAWSNKSDFACANAFNNSIIPEDTFFPSPESSCDVKLVEKSFETDTNLNFQNLSVIGFRILLLKVAGFNLLMTLRLWSSRAKRSGSGVKQTLNFDLLKLAGDVESNPGPSRGHMTEYKPTVRLATRDDVPRAVRTLAAAFADYPATRHTVDPDRHIERVTELQELFLTRVGLDIGKVWVADDGAAVAVWTTPESVEAGAVFAEIGPRMAELSGSRLAAQQQMEGLLAPHRPKEPAWFLATVGVSPDHQGKGLGSAVVLPGVEAAERAGVPAFLETSAPRNLPFYERLGFTVTADVEVPEGPRTWCMTRKPGA

Tested on: RAJI cells
Experiment: JNG assay, co-culture with RAJI cells
Assay type: cell-based
Settings: JNG cells expressing construct, co-culture with Raji
Procedure: Cellular supernatant is collected and assayed for the induction of cytokines (e.g., IL2).
JNG (Jurkat cells expressing EGFP under an NFAT promoter) were infected with lentiviral vectors encoding different single chain and multi-chain SARs by spinfection in the presence of 8 µg/ml of Polybrene® (Sigma, Catalog no. H9268). The Jurkat-NFAT-GFP cells are engineered in such a way that the IL-2 promoter, which carries NFAT binding sites, is cloned upstream of the GFP gene. These cells have been used to study signaling via TCR and CAR. The different SARs were stably expressed in Jurkat NFAT-GFP cells by lentiviral mediated gene transfer, followed by selection with puromycin or blasticidin. No drug selection was used in case the construct lacked an antibiotic resistance gene. The SAR-expressing Jurkat-NFAT-GFP cells were cocultured with the target cells at E:T ratio of approximately 1:2 for approximately 4 hours to 18 hours. When the interaction between SIRs and their target antigen results in activation of the NFAT pathway, GFP expression is induced. […] GFP expression was monitored by FACS analysis. The Jurkat-NFAT-GFP (parental) cells were used as control. The structure of different constructs can be determined based on their names. […] The sequence of the other constructs in the table can be similarly determined from their names and by referring to the different Tables of this disclosure that provide the names and SEQ ID NO of the different modules. Alternatively, the composition and modular architecture of the different SAR constructs can be determined from their sequences by bioinformatics tools, including using nucleic acid and amino acids homology searches. A SAR is considered positive in the assay in case the SAR expressing Jurkat-NFAT-GFP cells show greater % GFP positive cells when cultured with the target cell line as compared to parental Jurkat-NFAT-GFP cells. […] In general, the number +/-, +, 2+, 3+, 4+, 5+ refer to approximately 5%, 10%, 20%, 30%, 40% and 50% GFP positive cells. The % of GFP induction in the above assay is dependent not only the relative strength of the SAR but also, among other factors, on the relative level of expression of the SAR in the JNG cells and the relative level of expression of the target antigen in the target cell line. To control for the difference in gene transduction efficiency of the different SAR constructs, the experiment was conducted with JNG cells transduced with SAR constructs co-expressing a drug resistance gene (e.g., puromycin or PAC) followed by drug selection to generate a stable population of SAR-expressing cells. It is to be noted that the drug resistance gene (e.g., PAC) in the SAR constructs is optional and in vivo studies were conducted with SAR constructs lacking the PAC gene.

Molecule | NFAT-GFP ASSAY: Raji
B1 | +/- (refer to approximately 5%, 10%, 20%, 30%, 40% and 50% GFP positive cells)
B2 | +/- (refer to approximately 5%, 10%, 20%, 30%, 40% and 50% GFP positive cells)
B3 | +/- (refer to approximately 5%, 10%, 20%, 30%, 40% and 50% GFP positive cells)
B4 | + (refer to approximately 5%, 10%, 20%, 30%, 40% and 50% GFP positive cells)
B5 | +/- (refer to approximately 5%, 10%, 20%, 30%, 40% and 50% GFP positive cells)
B6 | +/- (refer to approximately 5%, 10%, 20%, 30%, 40% and 50% GFP positive cells)
